Experimental data: the supplement of paper PMC9112550, “Optimization of the antimicrobial peptide Bac7 by deep mutational scanning” (BMC Biology, 2022)

tested on: Escherichia coli TOP10; assay: shrunken log2 fold change of peptide-encoding DNA abundance (4.5 h post-induction vs induction); higher = less antimicrobial activity (less host growth inhibition); settings: time post-induction: 4.5 h; library: site-saturation at positions 5, 18, 19, 20
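Further: peptides expressed intracellularly from a pBAD plasmid library in pooled LB shake-flask culture, induced with 0.3% L-arabinose, DNA abundance read by NGS, three biological replicates, DESeq2 with apeglm shrinkage.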

Sequence	shrunken log2 fold change
RRIRQRPPRLPRPRPRPVMQPRP	0.0499
RRIRRRPPRLPRPRPRPQFWPRP	0.172
RRIRFRPPRLPRPRPRPMFLPRP	-0.712
RRIRYRPPRLPRPRPRPKRNPRP	-0.374
RRIRNRPPRLPRPRPRPHQKPRP	0.0226
RRIRMRPPRLPRPRPRPGKTPRP	0.769
RRIRRRPPRLPRPRPRPGSGPRP	0.407
RRIRSRPPRLPRPRPRPAHQPRP	-0.0659
RRIRGRPPRLPRPRPRPFTKPRP	-0.282
RRIRKRPPRLPRPRPRPLFQPRP	0.181
RRIRMRPPRLPRPRPRPMLKPRP	0.197
RRIRDRPPRLPRPRPRPEWNPRP	0.546
RRIRKRPPRLPRPRPRPIDVPRP	0.191
RRIRVRPPRLPRPRPRPGRDPRP	0.175
RRIRLRPPRLPRPRPRPMDIPRP	-0.568
RRIRKRPPRLPRPRPRPHCTPRP	-0.24
RRIRRRPPRLPRPRPRPVHGPRP	0.335
RRIRLRPPRLPRPRPRPDCMPRP	-0.0708
RRIRSRPPRLPRPRPRPGHIPRP	-0.109
RRIRHRPPRLPRPRPRPNDSPRP	-0.072
RRIRQRPPRLPRPRPRPRISPRP	-0.176
RRIRYRPPRLPRPRPRPGFYPRP	-0.406
RRIRRRPPRLPRPRPRPDAWPRP	0.325
RRIRQRPPRLPRPRPRPRWDPRP	0.29
RRIRIRPPRLPRPRPRPWILPRP	-0.349

Sequence	shrunken log2 fold change
RRIRRRPPRLPRPRPRPPSMPRP	0.426
RRIRKRPPRLPRPRPRPAGAPRP	0.698
RRIRKRPPRLPRPRPRPAKYPRP	0.0456
RRIRLRPPRLPRPRPRPHKMPRP	-0.355
RRIRKRPPRLPRPRPRPDLRPRP	0.103
RRIRQRPPRLPRPRPRPMVRPRP	-0.17
RRIRLRPPRLPRPRPRPEGWPRP	0.862
RRIRGRPPRLPRPRPRPCGGPRP	0.472
RRIRYRPPRLPRPRPRPHVEPRP	0.0184
RRIRQRPPRLPRPRPRPMLKPRP	-0.106
RRIRFRPPRLPRPRPRPMEDPRP	-0.015
RRIRYRPPRLPRPRPRPRTIPRP	-0.228
RRIRYRPPRLPRPRPRPMFGPRP	-0.143
RRIRARPPRLPRPRPRPAERPRP	0.301
RRIRMRPPRLPRPRPRPRWYPRP	0.0191
RRIRNRPPRLPRPRPRPRDAPRP	-0.163
RRIRPRPPRLPRPRPRPSQWPRP	-0.0044
RRIRKRPPRLPRPRPRPRACPRP	0.474
RRIRMRPPRLPRPRPRPWGNPRP	-0.00136
RRIRRRPPRLPRPRPRPWYRPRP	-0.151
RRIRYRPPRLPRPRPRPKHCPRP	-0.611
RRIRGRPPRLPRPRPRPGSLPRP	0.421
RRIRIRPPRLPRPRPRPFTKPRP	-0.173
RRIRHRPPRLPRPRPRPDGVPRP	0.0513
RRIRCRPPRLPRPRPRPRMWPRP	0.0419
